Where two headings read alike, the source gives them in different places.

Experimental findings from US20100310646A1 (AARHUS UNIVERSITET, published 2010) are described below.

In assay [1] the target is human PAPP-A K1509A mutant (human, UniProt Q13219 82-1627). Put plainly: binding to alanine mutants of human PAPP-A (ELISA per paragraph 531). As to the method: (§1) A, PAC1 binding to human PAPP-A/PAPP-A2 chimeras or truncated human PAPP-A variants analyzed by ELISA. Sequence derived from PAPP-A is shown by open bars, and absence of binding (−) or binding (+) is indicated. […] Samples with or without EDTA (10 mM) were injected (120 s) followed by dissociation (180 s) (solid lines). […] The absence of binding (−) or binding (+) is indicated. PAC5, which was used as a positive control, binds to an epitope of PAPP-A located N-terminal to CCP1.
(§2) Determination of antibody specificity and mapping of antibody binding—Mapping of antibody binding was carried out by ELISA using PAPP-A/PAPP-A2 chimeric proteins, and mutated variants of PAPP-A. The proteins were immobilized with polyclonal PAPP-A antibodies, and binding of phage antibodies were analyzed as detailed above.
For orientation: In an ELISA, binding on a coated surface is turned into a signal by an enzyme label.

In another assay the target is human PAPP-A(D1502A) (human, UniProt Q13219 82-1627). Described as above. The protocol: as §1, §2
Assay [2] concerns the target human PAPP-A D1530A mutant (human, UniProt Q13219 82-1627). The description is as above. As to the method:
as §1, §2

In assay [3] the target is human PAPP-A E1535A mutant (human, UniProt Q13219 82-1627). The description is as above. The protocol:
as §1, §2

The target of a further assay is human PAPP-A(D1499A) (human, UniProt Q13219 82-1627). The description is as above. As to the method:
as §1, §2

The target in assay [4] is human PAPP-A D1525A mutant (human, UniProt Q13219 82-1627). The assay is described as above. The protocol:
as §1, §2

For a further assay, the target named is human PAPP-A(D1484A) (human, UniProt Q13219 82-1627). The assay is described as above. The protocol:
as §1, §2

The target of assay [5] is human PAPP-A R1529A mutant (human, UniProt Q13219 82-1627). Described as above. The protocol:
as §1, §2

Assay [6] deals with T1, human PAPP-A(E483Q) (human, UniProt Q13219 82-1627).
T1 construct: Active-site mutant; also called immobilized PAPP-A (SPR)
Put plainly: SPR, calcium ion dependence of binding to immobilized PAPP-A. As to the method:
(§3) Surface plasmon resonance analysis—Surface plasmon resonance experiments were carried out on a BIAcore T100 instrument (BIAcore AB, Uppsala, Sweden) using series S CM5 sensor chips and coupling reagents supplied by the manufacturer. Affinity purified PAPP-A(E483Q), 10 μg/mL in 10 mM sodium acetate, pH 5.0, was immobilized (at a level of 500 resonance units (RU)) to the activated chip at 25° C. Remaining activated groups were blocked by 1M ethanolamine. Purified antibodies (0.35-11 nM) diluted in 10 mM HEPES, 150 mM NaCl, 1 mM CaCl₂, 0.05% Tween-20, pH 7.4 (HBS), were injected over the sensor chip for 2 min at a flow rate of 30 μL/min at 37° C. Recorded signals were subtracted the background signal, determined by the injection of an irrelevant antibody. […] Data were analyzed using the software of the manufacturer (BIAcore T100 evaluation Software version 1.1).
However, the binding was only disturbed when PAC1 was injected with EDTA onto a chip equilibrated with the calcium ion containing buffer (FIG. 8B). Following EDTA treatment, equilibration of the flow cell using calcium ion containing buffer restored its ability to bind PAC1 (FIG. 8B). […] Similar results were obtained with PAC2 (not shown).
In general terms: Surface plasmon resonance follows binding to a sensor surface in real time, without labels.

For assay [7], the target named is T1, human PAPP-A(E483Q). Put plainly: SPR (BIAcore T100), PAPP-A immobilized on CM5 chip, PAC1 0.35-11 nM injected at 37 C, 1:1 model, global fit; SPR, 37 C, PAPP-A on the chip. The protocol: (§4) A) Cleavage of IGFBP-4 (10 nM) by human PAPP-A (0.1 nM) in the presence of PAC1 (1.5 μM). The cleavage reaction was incubated (37° C.), and samples were taken out at intervals from 0 to 60 min, as indicated above each lane. The cleavage was visualized by SDS-PAGE followed by autoradiography. At 60 min, a faint band is visible at the position of the cleavage products (c). B) Cleavage of IGFBP-4 (10 nM) by murine PAPP-A (0.1 nM) for 1 h at 37° C. in the presence of 0-750 nM PAC1, as indicated above each lane. C) Cleavage of IGFBP-4 (10 nM) by PAPP-A (0.1 nM) was analyzed at different concentrations of PAC1. Relative initial velocities, determined independently, are plotted as a function of PAC1 concentration. All concentrations were determined by amino acid analysis (IGFBP-4 and PAC1) or ELISA (PAPP-A). Assuming competitive inhibition, an inhibitory constant was calculated (Kᵢ=1.2 nM±0.1). D) Sensorgrams showing binding of PAC1 to immobilized human PAPP-A. Purified PAC1 (0.35, 0.7, 1.4, 2.8, 5.5, and 11 nM) was injected onto the chip at 37° C. for 120 s followed by dissociation for 300 s.
as §3

For assay [8], the target named is T2, human pregnancy-associated plasma protein-A (PAPP-A) (human, UniProt Q13219 82-1627).
T2 construct: Recombinant, from 293T cells; also called human PAPP-A; full-length PAPP-A
Nature of the assay: inhibition of IGFBP-4 (10 nM) cleavage by human PAPP-A (0.1 nM), relative initial velocities against PAC1 concentration, competitive inhibition assumed; IGFBP-4 cleavage assay, competitive inhibition assumed. As to the method:
as §4, with “D) Sensorgrams showing binding of PAC1 to immobilized human PAPP-A. Purified PAC1 (0.35, 0.7, 1.4, 2.8, 5.5, and 11 nM) was injected onto the chip at 37° C. for 120 s followed by dissociation for 300 s.” left out
Measurement of proteolytic activity—Proteolytic activity of PAPP-A against IGFBP-4 and -5 was analyzed as previously described in detail (45). In brief, purified substrates, quantified by amino acid analysis, were labelled with ¹²⁵I (Amersham Biosciences). […] The degree of cleavage was determined by quantification of band intensities using a Typhoon imaging system (GE Healthcare), and background levels (mock signals) were subtracted. […]

Assay [9] deals with T2, human pregnancy-associated plasma …. Nature of the assay: cell-based or functional assay.
Assay [10] shares this target. Put plainly: cell-based or functional assay. This is another data set of the same source.

T1 sequence (Q13219 other isoform, or with tags, fused parts or gaps E483Q E483Q limits assumed): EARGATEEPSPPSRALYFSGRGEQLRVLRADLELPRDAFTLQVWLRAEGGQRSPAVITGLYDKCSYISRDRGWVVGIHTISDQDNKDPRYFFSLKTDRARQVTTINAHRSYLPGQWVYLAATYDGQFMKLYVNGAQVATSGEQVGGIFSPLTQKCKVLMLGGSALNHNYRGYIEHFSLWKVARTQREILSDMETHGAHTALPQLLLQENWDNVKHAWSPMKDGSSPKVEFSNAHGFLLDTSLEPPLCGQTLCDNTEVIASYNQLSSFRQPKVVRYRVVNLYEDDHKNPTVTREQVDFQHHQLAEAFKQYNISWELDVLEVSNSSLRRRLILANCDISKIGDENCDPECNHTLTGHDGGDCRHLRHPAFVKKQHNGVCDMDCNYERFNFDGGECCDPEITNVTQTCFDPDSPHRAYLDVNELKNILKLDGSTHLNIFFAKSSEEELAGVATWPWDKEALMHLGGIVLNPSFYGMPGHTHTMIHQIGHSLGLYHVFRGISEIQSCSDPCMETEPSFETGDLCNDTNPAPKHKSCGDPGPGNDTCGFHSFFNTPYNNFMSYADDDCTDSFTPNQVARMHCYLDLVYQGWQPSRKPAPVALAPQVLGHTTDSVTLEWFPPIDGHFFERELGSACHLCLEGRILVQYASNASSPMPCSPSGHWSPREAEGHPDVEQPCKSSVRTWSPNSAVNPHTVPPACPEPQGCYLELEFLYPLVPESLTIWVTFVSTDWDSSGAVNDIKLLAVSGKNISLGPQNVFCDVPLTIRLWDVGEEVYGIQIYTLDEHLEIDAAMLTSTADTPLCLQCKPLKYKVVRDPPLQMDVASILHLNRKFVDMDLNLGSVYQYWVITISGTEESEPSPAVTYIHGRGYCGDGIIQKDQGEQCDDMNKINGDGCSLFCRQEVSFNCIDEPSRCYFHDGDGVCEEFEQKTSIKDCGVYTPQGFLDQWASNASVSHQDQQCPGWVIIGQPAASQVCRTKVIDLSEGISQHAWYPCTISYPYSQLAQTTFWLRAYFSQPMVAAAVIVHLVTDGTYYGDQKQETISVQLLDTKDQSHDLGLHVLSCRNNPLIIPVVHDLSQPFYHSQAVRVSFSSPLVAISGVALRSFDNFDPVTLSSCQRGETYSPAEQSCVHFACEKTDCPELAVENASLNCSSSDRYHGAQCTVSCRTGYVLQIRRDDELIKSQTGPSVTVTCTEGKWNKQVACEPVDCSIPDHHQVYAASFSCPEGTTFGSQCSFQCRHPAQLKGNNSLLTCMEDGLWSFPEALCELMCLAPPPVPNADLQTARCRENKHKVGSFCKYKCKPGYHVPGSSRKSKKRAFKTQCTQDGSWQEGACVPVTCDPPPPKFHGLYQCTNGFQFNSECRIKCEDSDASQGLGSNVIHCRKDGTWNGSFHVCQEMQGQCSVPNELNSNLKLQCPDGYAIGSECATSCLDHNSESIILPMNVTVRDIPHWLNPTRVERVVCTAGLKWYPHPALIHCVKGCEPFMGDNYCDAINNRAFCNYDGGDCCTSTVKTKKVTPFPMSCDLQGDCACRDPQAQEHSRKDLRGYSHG
T2 sequence (Q13219 other isoform, or with tags, fused parts or gaps limits assumed): as the sequence (Q13219 other isoform, or with tags, fused parts or gaps E483Q E483Q limits assumed) above, with Q483E counted along it
Chain of human PAPP-A D1530A mutant (Q13219 other isoform, or with tags, fused parts or gaps D1530A D1530A limits assumed): as the sequence (Q13219 other isoform, or with tags, fused parts or gaps E483Q E483Q limits assumed) above, with Q483E, D1530A counted along it
Chain of human PAPP-A(D1484A) (Q13219 other isoform, or with tags, fused parts or gaps D1484A D1484A limits assumed): as the sequence (Q13219 other isoform, or with tags, fused parts or gaps E483Q E483Q limits assumed) above, with Q483E, D1484A counted along it
Chain of human PAPP-A(D1502A) (Q13219 other isoform, or with tags, fused parts or gaps D1502A D1502A limits assumed): as the sequence (Q13219 other isoform, or with tags, fused parts or gaps E483Q E483Q limits assumed) above, with Q483E, D1502A counted along it
Chain of human PAPP-A(D1499A) (Q13219 other isoform, or with tags, fused parts or gaps D1499A D1499A limits assumed): as the sequence (Q13219 other isoform, or with tags, fused parts or gaps E483Q E483Q limits assumed) above, with Q483E, D1499A counted along it
Chain of human PAPP-A R1529A mutant (Q13219 other isoform, or with tags, fused parts or gaps R1529A R1529A limits assumed): as the sequence (Q13219 other isoform, or with tags, fused parts or gaps E483Q E483Q limits assumed) above, with Q483E, R1529A counted along it
Chain of human PAPP-A D1525A mutant (Q13219 other isoform, or with tags, fused parts or gaps D1525A D1525A limits assumed): as the sequence (Q13219 other isoform, or with tags, fused parts or gaps E483Q E483Q limits assumed) above, with Q483E, D1525A counted along it
Chain of human PAPP-A K1509A mutant (Q13219 other isoform, or with tags, fused parts or gaps K1509A K1509A limits assumed): as the sequence (Q13219 other isoform, or with tags, fused parts or gaps E483Q E483Q limits assumed) above, with Q483E, K1509A counted along it
Chain of human PAPP-A E1535A mutant (Q13219 other isoform, or with tags, fused parts or gaps E1535A E1535A limits assumed): as the sequence (Q13219 other isoform, or with tags, fused parts or gaps E483Q E483Q limits assumed) above, with Q483E, E1535A counted along it

B1: PAC2 (PAPP-A exosite antibody, scFv) (scFv)
scFv: EVQLLESGGGLVQPGGSLRLSCAASGFTFSSYAMSWVRQAPGKGLEWVSSIQADGTRTGYADSVKGRFTISRDNSKNTLYLQMNSLRAEDTAVYYCAKQRGIFDYWGQGTLVTVSSGGGGSGGGGSGGGGSTDIQMTQSPSSLSASVGDRVTITCRASQSISSYLNWYQQKPGKAPKLLIYRASGLQSGVPSRFSGSGSGTDFTLTISSLQPEDFATYYCQQSHHYPSTFGQGTKVEIKRAAAHHHHHHGAAEQKLISEEDLNGAA
notes: Selected from the Tomlinson I+J phage libraries; also called scFv PAC2
On to B1, for which the binding result in assay [1] is given as “binds”; in the assay with human PAPP-A(D1502A), “no binding”; in assay [2], “no binding”; in [3], “binds”; in the assay with human PAPP-A(D1499A), “no binding”; in assay [4] it was “binds”. In addition, the binding result is on record as “no binding” in the assay with human PAPP-A(D1484A), “no binding” in assay [5] and “binds” in the assay with human PAPP-A(E483Q) [6].

B2: PAC1 (PAPP-A exosite antibody, scFv) (scFv)
scFv: EVQLLESGGGLVQPGGSLRLSCAASGFTFSSYAMSWVRQAPGKGLEWVSVITDMGRTTRYADSVKGRFTISRDNSKNTLYLQMNSLRAEDTAVYYCAKGLRQFDYWGQGTLVTVSSGGGGSGGGGSGGGGSTDIQMTQSPSSLSASVGDRVTITCRASQSISSYLNWYQQKPGKAPKLLIYHASQLQSGVPSRFSGSGSGTDFTLTISSLQPEDFATYYCQQYGGNPTTFGQGTKVEIKRAAAHHHHHHGAAEQKLISEEDLNGAA
notes: Selected from the Tomlinson I+J phage libraries and produced in E. coli HB2151; Purified scFv was used in SPR and cleavage assays; also called scFv PAC1; antibody PAC1
Turning to B2, in the assay with human PAPP-A(E483Q) [7], binding was put at a Kd of 0.25 nM. The same molecule had a koff in the assay with human PAPP-A(E483Q) [7] of 0.00109 s⁻¹. For the same molecule, in the assay with human PAPP-A(E483Q) [7], the kon worked out at 4.36e+06 M⁻¹ s⁻¹. For the same molecule, the binding result (with human PAPP-A(D1502A); in assay [2]; in the assay with human PAPP-A(D1499A); in the assay with human PAPP-A(D1484A); in assay [5]) was “no binding” throughout. The molecule also yielded an inhibitory constant (Ki) in assay [8] of 1.2 nM. For the same molecule, the “IC50 (read off the curve)” value in assay [9] was roughly 1 nM; in assay [10], roughly 2 nM.

In general, Kd refers to the concentration at which binding is half-saturated. The low end stands for tighter binding, the high end for weaker binding. What is called koff is the first-order rate constant of dissociation. A word on the kon: it is the rate constant with which the complex forms. High values mean faster complex formation, low ones slower complex formation. By Ki is commonly meant the dissociation constant of the complex between target and ligand, obtained from inhibition or displacement. A high value points to a looser hold on the target.
